Laboratory results as given in patent US20140154252A1.

Columns and labels:
CD20 (human) [1] = molecular target: CD20 (human) (UniProt P11836); assay: cell-based or functional assay
CD37 (human) [2] = molecular target: T1, CD37 (human) (UniProt P11049); assay: cell-based or functional assay
T1 sequence (looked up): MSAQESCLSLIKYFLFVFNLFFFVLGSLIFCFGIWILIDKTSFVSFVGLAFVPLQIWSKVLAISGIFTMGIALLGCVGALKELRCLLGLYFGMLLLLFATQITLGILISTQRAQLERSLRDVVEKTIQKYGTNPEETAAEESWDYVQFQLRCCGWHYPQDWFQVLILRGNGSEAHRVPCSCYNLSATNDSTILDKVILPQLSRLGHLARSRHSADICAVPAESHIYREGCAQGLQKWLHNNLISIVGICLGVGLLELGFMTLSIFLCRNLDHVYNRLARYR

CD37 (human) [3] = molecular target: T1, CD37 (human); assay: competition flow cytometry on Ramos B-cells; competitor FITC anti-CD37 antibody [lower graph (Detection of FITC-CD37 mAb]
CD20 (human) [4] = molecular target: CD20 (human) (UniProt P11836); assay: competition flow cytometry on Ramos B-cells; competitor PE anti-CD20 antibody [upper graph (Detection of PE-CD20 mAb]

Chain of CD20 (human) (P11836 whole entry): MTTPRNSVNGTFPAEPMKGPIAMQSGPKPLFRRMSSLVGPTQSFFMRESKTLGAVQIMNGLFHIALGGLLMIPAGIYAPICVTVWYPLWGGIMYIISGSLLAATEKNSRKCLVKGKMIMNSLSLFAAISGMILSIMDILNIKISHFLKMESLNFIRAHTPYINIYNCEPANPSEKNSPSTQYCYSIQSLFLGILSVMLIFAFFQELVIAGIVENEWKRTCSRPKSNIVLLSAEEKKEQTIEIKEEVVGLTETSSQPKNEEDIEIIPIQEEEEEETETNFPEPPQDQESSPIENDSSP

IC50 (nM), direct growth inhibition of DoHH2 cells, 96 h, ATP detection (CD20 (human) [1]): 0.05 nM
IC50 (nM), direct growth inhibition of SU-DHL-6 cells, 96 h, ATP detection (CD20 (human) [1]): 0.05 nM
IC50 (nM), direct growth inhibition of DoHH2 cells, 96 h, ATP detection (CD37 (human) [2]): 0.05 nM
IC50 (nM), direct growth inhibition of SU-DHL-6 cells, 96 h, ATP detection (CD37 (human) [2]): 0.05 nM
IC50 (read off the curve) (CD37 (human) [3]): 2 nM
IC50 (read off the curve) (CD20 (human) [4]): 5 nM
Substance: CD20×CD37 bispecific scorpion (015×016) (bispecific antibody)
